Data taken from patent US20020076795A1, “Novel TRF1 binding protein, methods of use thereof” (published 2002).

B1: GAL4 activation domain (GAD) (alone) (other, UniProt P04386 768-881, looked up)
chain: ANFNQSGNIADSSLSFTFTNSSNGPNLITTQTNSQALSQPIASSNVHDNFMNNEITASKIDDGNNSKPLSPGWTDQTAYNAFGITTGMFNTTTMDDVYNYLFDDEDTPPNPKKE
notes: Control
B2: [TTAGGG]12 duplex, 142 bp HindIII-Asp718 fragment of pTH12 (dsDNA)
DNA 1: TTAGGGTTAGGGTTAGGGTTAGGGTTAGGGTTAGGGTTAGGGTTAGGGTTAGGGTTAGGGTTAGGGTTAGGG
DNA 2: CCCTAACCCTAACCCTAACCCTAACCCTAACCCTAACCCTAACCCTAACCCTAACCCTAACCCTAACCCTAA

Columns and labels:
[1] = target: T1, human full length TRF1 fused to LexA (LexA-TRF1) (human, UniProt P0A7C2 1-202; P54274 2-439); assay: yeast two-hybrid, β-galactosidase; GAD without tankyrase sequences
T1 construct: The construct comes from Bianchi et al. 1997; also called LexA-FL
T1 sequence (looked up): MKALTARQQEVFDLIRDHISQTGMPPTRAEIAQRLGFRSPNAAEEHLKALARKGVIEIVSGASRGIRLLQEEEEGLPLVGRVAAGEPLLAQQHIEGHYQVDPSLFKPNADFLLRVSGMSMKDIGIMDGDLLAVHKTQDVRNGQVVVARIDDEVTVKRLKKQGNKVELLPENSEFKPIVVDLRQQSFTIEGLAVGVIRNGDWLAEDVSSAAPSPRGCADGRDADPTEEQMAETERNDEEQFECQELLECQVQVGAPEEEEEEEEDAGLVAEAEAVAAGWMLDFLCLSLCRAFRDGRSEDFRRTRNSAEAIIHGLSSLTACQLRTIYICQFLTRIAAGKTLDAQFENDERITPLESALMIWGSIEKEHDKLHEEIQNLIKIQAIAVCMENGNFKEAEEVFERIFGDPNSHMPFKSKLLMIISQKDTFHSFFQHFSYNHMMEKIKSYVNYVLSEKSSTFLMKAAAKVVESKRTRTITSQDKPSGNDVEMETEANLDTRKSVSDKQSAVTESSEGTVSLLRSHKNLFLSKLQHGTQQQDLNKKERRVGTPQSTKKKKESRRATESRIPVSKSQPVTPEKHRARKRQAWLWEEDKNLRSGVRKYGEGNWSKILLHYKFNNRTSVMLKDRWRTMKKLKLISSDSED
Description: TR1L-4 and TR1L-12 were isolated from a human liver two-hybrid cDNA library (Clontech) created in pGad10. The library was screened with human full length TRF1 cDNA fused to LexA (LexA-TRF1) [Bianchi et al., EMBO J., 16:1785-1794 (1997)] in the yeast strain L40 as described [Hollenberg et al., Mol. Cell Biol., 15:3813-3822 (1995)]. Two-hybrid analysis was performed as described by Bianchi et al. [EMBO J., 16:1785-1794 (1997)]. β-galactosidase assays for the two-hybrid analysis was performed as described by Bianchi et al. [EMBO J., 16:1785-1794 (1997)].
Two-hybrid analysis was used to determine the interacting domains between tankyrase and TRF1. […] To determine the tankyrase-interacting domain in TRF1, two-hybrid analysis was performed with the 10-ANK repeat domain of TR1L-12 fused to the GAL4 activation domain (GAD-tankyrase) and full-length and deletion constructs of TRF1 fused to LexA. […] As observed previously, the amino-terminal acidic domain of TFR1 (LexAd68-C) activated transcription even in the absence of tankyrase sequences in the GAD fusion partner. […] Deletion of the acidic domain of TRF1 (ΔN66-LexA) abolished the interaction with GAD-tankyrase.

TRF1 (hTRF1) = TRF1 (hTRF1) (Homo sapiens, UniProt P54274 P54274:2-439); assay: EMSA; 13-120 ng TRF1 per 20 ul, 1 ng probe, 20 mM Hepes-KOH pH 7.9, 100 mM KCl, 100 ng sheared E. coli DNA, room temperature; slight nonspecific stimulation by tankyrase without NAD+; details: tags: baculovirus-derived (Bianchi et al. 1997); chain copies: 2 (homodimer, stated; several dimers per probe at high concentration); label: end-labeled
Description: Biol. 12:4834 (1992)] containing 12 tandem TTAGGG repeats. Baculovirus-derived TRF1 (13 to 120 ng) [Bianchi et al. EMBO J. 16:1785 (1997)] was incubated for 30 minutes at room temperature in a 20 μl reaction containing 20 mM Hepes-KOH (pH 7.9), 100 mM KCL, 0.5 mM DTT, 5% glycerol, 0.1% NP40, 100 ng sheared E. coli DNA, 100 ng β-casein, and 1 ng of labeled probe. In some cases, reactions were supplemented with NAD⁺ (0.2 mM) and baculovirus-derived human tankyrase (2.5 to 200 ng). Samples were fractionated on a 0.7% agarose gel run in 0.1× TBE (8.9 mM Tris-base, 8.9 mM Boric acid, and 0.2 mM EDTA) at 130 volts for 1 hour at room temperature. Gels were dried onto Whatman DE81 paper and autoradiographed.

Binder	binding result [1]	binding result (TRF1 (hTRF1))
B1	no binding	–
B2	–	binds
